According to patent WO2012092539A2 (dated 2012):
Blank lines part the entries; values can stand above or below the binder they belong to.

Target: DLL4 protein (R&D Systems) (Homo sapiens (Human), UniProt Q9NR61 27-524)
Assay: cell-based or functional assay

DLL4 protein (R&D Systems), sequence (Q9NR61 27-524 limits assumed): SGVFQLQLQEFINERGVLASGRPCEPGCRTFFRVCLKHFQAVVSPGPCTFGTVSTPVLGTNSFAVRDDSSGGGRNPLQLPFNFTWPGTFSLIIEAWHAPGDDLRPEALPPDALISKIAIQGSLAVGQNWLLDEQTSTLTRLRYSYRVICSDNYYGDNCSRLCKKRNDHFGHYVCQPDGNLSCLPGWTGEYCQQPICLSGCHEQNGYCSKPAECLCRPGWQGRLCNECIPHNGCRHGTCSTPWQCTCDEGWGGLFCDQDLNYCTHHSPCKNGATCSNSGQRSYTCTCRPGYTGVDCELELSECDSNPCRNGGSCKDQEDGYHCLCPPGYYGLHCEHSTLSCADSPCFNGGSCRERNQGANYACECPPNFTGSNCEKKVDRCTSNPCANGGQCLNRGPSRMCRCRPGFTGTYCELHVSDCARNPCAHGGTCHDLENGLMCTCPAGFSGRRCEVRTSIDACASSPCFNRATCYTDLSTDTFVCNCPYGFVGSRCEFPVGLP

B2: 12.55 (antibody, human IgG2, V domains shown)
VH: EVQLVETGGGLVQPGGSLRLSCAASGFTFSDYAMSWVRQTPGKGLEWVSTISGSGGDTFYADSVKGRFTISRDNSKNTLYLQVNSLRAEDTAVYYCAKDKNRGAYADAFDIWGQGTMVTVSS
VL: QAVLTQPASLSASPGASASLTCTLRSDINVATYRIYWYKQKPGSPPQYLLTYKSDSDKQQGSGVPSRFSGSKDSSANAGILLISGLQSDDEADYHCMVWHKSAPIFGGGTKVTVLG
EC50, HES1 luciferase reporter in HELA cells on DLL4-coated wells: 21.9 nM

B3: 12.3 1C1 (antibody, V domains shown)
VH: DVQLQESGPDLVKPSQSLSLTCTVTDHSITSGYSWHWIRQFPGNKLEWMAYIHYSGYTHYNPSLKSRISITRDTSKNQFFLHLNSVTTEDSATFYCAGSDYSANEGAMAYWGQGTSATVSS
VL: DIVLTQSPASLAVSLGQRATISCRASESVDSFGNSFMHWYQQKAGQPPKLLIYRTSNLQSGIPARFSGSGSRTDFTLTINPVEADDVATYYCQQSNEDPWTFGGGTKLEIKR
EC50, HUVEC proliferation on DLL4-coated wells (CellTiter Glo, day 3): 3.9 nM

Second part, the binder after the results:

EC50, HUVEC proliferation on DLL4-coated wells (CellTiter Glo, day 3): 60 nM
B1: BA1 (antibody, V domains shown)
VH: QVQLVQSGAEVKKPGASVKISCKASGYSFTAYYIHWVKQAPGQGLEWIGYISSYNGATNYNQKFKGRVTFTTDTSTSTAYMELRSLRSDDTAVYYCARDYDYDVGMDYWGQGTLVTVSS
VL: DIVMTQSPDSLAVSLGERATISCRASESVDNYGISFMKWFQQKPGQPPKLLIYAASNQGSGVPDRFSGSGSGTDFTLTISSLQAEDVAVYYCQQSKEVPWTFGGGTKVEIKR

EC50, HUVEC proliferation on DLL4-coated wells (CellTiter Glo, day 3): 45 nM
B4: BA2 (antibody, V domains shown)
VH: EVQLVESGGGLVQPGGSLRLSCAASGFTFTDNWISWVRQAPGKGLEWVGYISPNSGFTYYADSVKGRFTISADTSKNTAYLQMNSLRAEDTAVYYCARDNFGGYFDYWGQGTLVTVSS
VL: DIQMTQSPSSLSASVGDRVTITCRASQDVSTAVAWYQQKPGKAPKLLIYSASFLYSGVPSRFSGSGSGTDFTLTISSLQPEDFATYYCQQSYTGTVTFGQGTKVEIKR
